Where a chain is given by its changes, count along the chain named. Names and notes keep the numbering of the source.
B1: mCUSB0123 (antibody, V domains shown)
VH: QVQLQQSGPELVRPGESVKISCKGSGYTFTDYVMHWVKQSHAKSLEWIGVITIYNDITNYNQKFKGKATMTIDKSSSTAYMELARLTSEDSAIYYCAREGYDSYWYFDVWGAGTTVTVSS
VL: DVLMTQTPLSLPVSLGDQASISCRSSQTIVHSNGNTYLEWYLQKPGQSPKLLIYKVSNRFSGVPDRFSGSGSGTDFTLKISRVEAEDLGVYYCFQGSHLPYTFGGGTKLEIK
notes: Mouse monoclonal antibody purified from hybridoma
B2: mCUSB0136 (antibody, V domains shown)
VH: QVQLKESGPGLVAPSQSLSITCTVSGFSLTTYDIIWIRQSPGKGLEWLGVIWTGGDTNYNSAFMSRLSISKDNSKSQIFLKMNSLQTDDTAIYYCVRDWAYWGQGTLVTVST
VL: NIVLTQSPASLAVSLGQRATISCRASESVDNYGNSFIQWYQQKPGQPPKLLIYFASNLQSGVPARFSGSGSRTDFTLTIDPVEADDAATYYCHQNNEDPFTFGSGTKLEIK
notes: as for B1
B3: mCUSB0125 (antibody, V domains shown)
VH: DVQLRESGPGLVKPSQSLSLTCTVTGYSITSDYAWNWIRQFPGNKLEWMGYIYYSGTTSYNPSLKSRISITRDTSKNQFFLQLNSVTTEDTATYYCARNYGSAFYYFDYWGQGTTLTVSS
VL: DILMTQSPSSMSVSLGDTVTITCHASQGISSNIGWLQQKPGKSFKGLIYRGTNLEDGVPSRFSGSGSGADYSLTISSLESEDFADYYCVQYAQFPPTFGGGTKLEIK
notes: as for B1
B4: mCUSB0124 (antibody, V domains shown)
VH: QIQLVQSGPELKKPGETVKISCKASGYIFTNYGVTWVKQTPGKGLKWMTWINTNTGEPTSAEEFKGRFDFSSETSATTAYLQINNLKNEDTATYFCVRIRENAMDYWGQGTSVTVSS
VL: DIQMTQSPASQSASLGESVTITCLASQTIGTWLAWYQQKPGKSPQLLIYAATRLAVGVPSRFSGSGSGTKFSFKISRLQAEDFVSYYCQQLYSTPFTFGSGTKLEIK
notes: as for B1
B5: mCUSB0129 (antibody, V domains shown)
VH: VKLVESGGGLVKPGGSLKLSCAASGFPFSSYLMSWVRQTPEKRLEWVAAISGGGRDTYYPDSVKGRFTISRDNARNILYLQMSSLRSEDTALYYCARRGSYAMDYWGQGTSVTVSS
VL: B4 VL with L46I, A50D, R53N, V56D, R77S, T94I, F96W, S100G
notes: as for B1
B6: zCUSB0125.9 (antibody, human IgG4, V domains shown)
VH: QVQLQESGPGLVKPSQTLSLTCTVSGYSITSDYAWNWIRQPPGKGLEWMGYIYYSGTTSYNPSLKSRISITRDTSKNQFSLKLSSVTAADTAVYYCARNYGSAFYYFDYWGQGTTLTVSS
VL: DIQMTQSPSSVSASVGDRVTITCHASQGISSNIGWLQQKPGKAFKGLIYRGTNLEDGVPSRFSGSGSGTDYTLTISSLQPEDFATYYCVQYAQFPPTFGGGTKLEIK
notes: domain: human IgG4 constant region; Humanized; human IgG4 S228P and kappa constant regions; also called CUSB0125-BMVH.3 with CUSB0125-BMVL.3; not shown: human kappa constant region
B7: zCUSB0125.12 (antibody, human IgG4, V domains shown)
VH: B6 VH with P41F, G45K
VL: B6 VL
notes: domain: human IgG4 constant region; Humanized; human IgG4 S228P and kappa constant regions; also called CUSB0125-BMVH.4 with CUSB0125-BMVL.3; not shown: human kappa constant region
B8: zCUSB0125.6 (antibody, human IgG4, V domains shown)
VH: B6 VH with S69T, T71S, V93T
VL: B6 VL
notes: domain: human IgG4 constant region; Humanized; human IgG4 S228P and kappa constant regions; also called CUSB0125-BMVH.2 with CUSB0125-BMVL.3; not shown: human kappa constant region
B9: zCUSB0125.3 (antibody, human IgG4, V domains shown)
VH: B6 VH with M49I, I68V, S69T, T71S, R72V
VL: B6 VL
notes: domain: human IgG4 constant region; Humanized; human IgG4 S228P and kappa constant regions; also called CUSB0125-BMVH.1 with CUSB0125-BMVL.3; not shown: human kappa constant region
B10: xCUSB0125 (antibody, human IgG4, V domains shown)
VH: B3 VH
VL: B3 VL
notes: Chimeric: mouse variable regions joined to human IgG4/kappa constant regions; also called chimeric CUSB0125; not shown: human IgG4 constant region, UniProt P01861; human kappa constant region, UniProt P01834
B11: xCUSB0103 (antibody, human IgG4, V domains shown)
VH: DVKLVESGGGLVKPGGSLKLSCAASGFTFSSYTMSWVRQTPEKRLEWVAAISGGGSYTYYADSVKGRFTISRDNAKNTLSLQMSSLKSEDTAMYFCTSPYDFAMDYWGQGTSVTVSS
VL: DIQMTQTTSSLSASLGDRVTISCRASQDITNYLNWYQQKPDGSVKLLIYYTSRLHSGVPSRFRGSGSGTDYSLTISNLEQEDIATYFCQQGNTLPWTFGGGTKLEIK
notes: Chimeric: mouse variable regions joined to human IgG4/kappa constant regions; also called chimeric CUSB0103; not shown: human IgG4 constant region, UniProt P01861; human kappa constant region, UniProt P01834
B12: xCUSB0123 (antibody, human IgG4, V domains shown)
VH: B1 VH
VL: B1 VL
notes: Chimeric: mouse variable regions joined to human IgG4/kappa constant regions; also called chimeric CUSB0123; not shown: human IgG4 constant region, UniProt P01861; human kappa constant region, UniProt P01834
B13: xCUSB0136 (antibody, human IgG4, V domains shown)
VH: B2 VH
VL: B2 VL
notes: Chimeric: mouse variable regions joined to human IgG4/kappa constant regions; also called chimeric CUSB0136; xCUSBO136; not shown: human IgG4 constant region, UniProt P01861; human kappa constant region, UniProt P01834
B14: xCUSB0124 (antibody, human IgG4, V domains shown)
VH: B4 VH
VL: B4 VL
notes: Chimeric: mouse variable regions joined to human IgG4/kappa constant regions; also called chimeric CUSB0124; not shown: human IgG4 constant region, UniProt P01861; human kappa constant region, UniProt P01834
B15: xCUSB0126 (antibody, human IgG4, V domains shown)
VH: B5 VH with G9D, S62N, L92V, R97T
VL: B4 VL with L46I, R53N, V56D, R77S, T94I, F96W, S100G
notes: Chimeric: mouse variable regions joined to human IgG4/kappa constant regions; also called chimeric CUSB0126; not shown: human IgG4 constant region, UniProt P01861; human kappa constant region, UniProt P01834
B16: xCUSB0129 (antibody, human IgG4, V domains shown)
VH: B5 VH
VL: B4 VL with L46I, A50D, R53N, V56D, R77S, T94I, F96W, S100G
notes: Chimeric: mouse variable regions joined to human IgG4/kappa constant regions; also called chimeric CUSB0129; not shown: human IgG4 constant region, UniProt P01861; human kappa constant region, UniProt P01834

Each binder was assayed against T1, recombinant human PD-1 His-tag protein (R&D Systems) (human, UniProt Q15116 25-167) (assay: ELISA, PD-1 His-tag coated on plate, anti-mouse IgG Fc-HRP detection).
T1 construct: Bought reagent; Used for the ELISA (coated) and for SPR (analyte); also called PD-1 protein; human PD-1 protein; not shown: His-tag
T1 sequence (Q15116 25-167 limits assumed): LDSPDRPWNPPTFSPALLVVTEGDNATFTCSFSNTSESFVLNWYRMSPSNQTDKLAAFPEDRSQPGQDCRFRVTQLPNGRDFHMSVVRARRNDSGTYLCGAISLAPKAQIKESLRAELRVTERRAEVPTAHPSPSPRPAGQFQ
Method: (§1) ELISA technique was used to select hybridoma mini-pools producing anti-PD-1 antibodies using the following procedure. MaxiSorp ELISA plate was coated with PD-1 His-tag (R&D System) in PBS buffer (10 ng/100 μL/well) at 4° C. overnight. […] The culture supernatant of each mini-pool (100 μL) was added to the plate then incubated for 1 hour at 37° C. After washing, the plate was probed with goat anti-mouse IgG Fcγ-HRP (Jackson Immuno Research) diluted 1:8,000 in PBST (100 μL/well) and incubated for 1 hour at 37° C. […] 1 M H₂SO₄ (50 μL/well) was used to stop the reaction. […] Hybridoma mini-pools with absorbance values of more than 1.0 were selected for further screening.
The purified antibodies were 2-fold serial diluted for eleven rounds starting from 2 μg/mL until reaching the final concentration of 0.977 ng/mL. The PD-1 binding activity of purified antibodies was evaluated by ELISA following the procedure mentioned in Example 2. The half-maximal effective concentration (EC₅₀) was calculated using GraphPad Prism® software.

EC50 [µg/mL]	Binder
0.0701	B1
0.0342	B2
0.109	B3
0.104	B4
0.074	B5

Each binder was assayed against T2, human PD-1 on PD-1-expressing Jurkat effector cells (human, UniProt Q15116 25-288) (assay: cell-based or functional assay).
T2 sequence (Q15116 25-288): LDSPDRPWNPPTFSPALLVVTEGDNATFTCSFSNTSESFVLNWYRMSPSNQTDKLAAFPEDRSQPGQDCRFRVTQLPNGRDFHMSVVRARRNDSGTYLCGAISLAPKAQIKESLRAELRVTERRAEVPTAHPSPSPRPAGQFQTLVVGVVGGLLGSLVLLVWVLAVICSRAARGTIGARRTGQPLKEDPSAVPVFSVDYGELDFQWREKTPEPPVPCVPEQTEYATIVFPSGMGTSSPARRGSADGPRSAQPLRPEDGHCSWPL

PD-1/PD-L1 blockade bioassay, IC50 [µg/mL]	Binder
0.462	B6
0.312	B7
0.297	B8
2.41	B9

Target: T2, human PD-1 on PD-1-expressing Jurkat …
Assay: cell-based or functional assay
Remark: another data set of the same source

IC50 (read off the curve) [µg/mL]	Binder
~0.3	B10

Each binder was assayed against T1, recombinant human PD-1 His-tag protein … (assay: SPR, Biacore T200, as in Example 8 (antibody on Protein G chip, PD-1 His-tag injected)).
Method: (§2) The Biacore T200 instrument, equipped with a Protein G sensor chip (GE Healthcare), was used to determine the binding kinetics between chimeric anti-PD-1 antibodies and PD-1 protein. Each purified chimeric anti-PD-1 antibody (1 μg/mL) was injected into the chip with a flow rate of 30 μL/min for 60 sec. […] The HBS-EP+buffer (GE Healthcare) was used as a buffer blank and diluent. The association constant (kₒₙ), dissociation constant (koff), and equilibrium constant (KD) values were calculated using Biacore T200 evaluation software (version 3.1) with a 1:1 Langmuir binding model curve fitting.

Kd [nM]	koff [s⁻¹]	kon [M⁻¹ s⁻¹]	Binder
0.249	0.000746	2.99e+06	B6
0.182	0.000579	3.18e+06	B7
0.227	0.000721	3.18e+06	B8
3.28	0.00944	2.88e+06	B9

Target: T2, human PD-1 on PD-1-expressing Jurkat …
Assay: cell-based or functional assay
Remark: another data set of the same source

PD-1/PD-L1 blockade bioassay, IC50 [µg/mL]	Binder
0.593	B11
0.957	B12
0.372	B13
0.302	B10
2.93	B14
0.43	B15
0.455	B16

What follows are binders tested against T1, recombinant human PD-1 His-tag protein … (assay: ELISA, PD-1 His-tag coated on plate, anti-human IgG Fc-HRP detection).
Method: as §1
The purified chimeric antibodies were 2-fold serial diluted for eleven rounds starting from […] until reaching the final concentration of 0.977 ng/mL. The PD-1 binding activity of purified chimeric antibodies was evaluated by ELISA following the procedure mentioned in Example 2, while the goat anti-human IgG Fcγ-HRP antibody (Jackson Immuno Research) diluted 1:10.000 in PBST was used to detect chimeric antibodies.

EC50 [µg/mL]	Binder
0.0284	B11
0.0353	B12
0.0154	B13
0.0201	B10
0.0894	B14
0.0437	B15
0.0347	B16

Target: T2, human PD-1 on PD-1-expressing Jurkat …
Assay: cell-based or functional assay
Remark: another data set of the same source

IC50 (read off the curve) [µg/mL]	Binder
~0.4	B13

The binders below were run against T1, recombinant human PD-1 His-tag protein … (assay: SPR, Biacore T200, antibody captured on Protein G chip, PD-1 His-tag injected, single-cycle kinetics, 1:1 model).
Method: as §2

Kd [nM]	koff [s⁻¹]	kon [M⁻¹ s⁻¹]	Binder
0.448	0.000292	653000	B11
1.23	0.000366	298000	B12
0.083	0.000193	2.3e+06	B13
0.18	0.000512	2.84e+06	B10
5.92	0.000912	154000	B14
0.577	0.000285	493000	B15
0.621	0.000293	471000	B16

Target: T2, human PD-1 on PD-1-expressing Jurkat …
Assay: cell-based or functional assay
Remark: another data set of the same source

PD-1/PD-L1 blockade bioassay, IC50 [µg/mL]	Binder
2.43	B1
1.21	B2
2.71	B3
6.58	B4
1.83	B5

Source: patent publication US20260098092A1 (CHULALONGKORN UNIVERSITY, published 2026)
